Measurements as given in the supplement of paper PMC10567573.
± gives the standard deviation.

Assay: protein stability index of a GFP-peptide fusion (GPS, HEK-293T) (PSI 1-6); higher = more stable
Conditions: c terminus: a fixed tail appended
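Also: 24-mer peptide tiles fused after GFP, lentivirally expressed, FACS-sorted into six equal bins by GFP/DsRed ratio, decoded by Illumina sequencing, PSI is the read-weighted mean bin number.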

Sequence	protein stability index (treatment: DMSO)	protein stability index (treatment: MLN4924 1 uM, 8 h)
PFPAGPLAVAGGPRKTAAPVNALV [ESRRA]	3.7 ± 0.34	3.61 ± 0.31
GREEKCVWKHGITPPLKNVRKKRF [TAF7L]	3.98 ± 0.34	4.03 ± 0.41
LKPEKSYSFVLTNRGNSAGGLQHR [PTPRD]	3.08 ± 0.53	3.27 ± 0.23
LAEIRCDLERQNQEYQVLLDVRAR [KRT34]	3.57 ± 0.17	3.59 ± 0.13
YARQHCPLKNPTFLDYVRPRSWTC [SOAT1]	2.12 ± 0.46	2.14 ± 0.53
QRLVEALEENELTSLAEDLLGLTD [TRADD]	4.28 ± 0.14	4.28 ± 0.17
PARAGSEVEWTEDLALDLGPQSRE [C2CD2L]	5.24 ± 0.23	5.31 ± 0.23
MAVAQQLRAESDFEQLPDDVAISA [NCF4]	4.89 ± 0.27	4.88 ± 0.19
QLDKNSEVYQEVQAMFDTLGIPKS [FAM98B]	3.11 ± 0.69	3.66 ± 0.59
FPNRTDQQCQYRWLRVLNPDLVKG [MYBL2]	2.4 ± 0.34	2.44 ± 0.53
PNLTYVYPHTRIQSLVSILRTTVH [CLCN6]	2.38 ± 0.51	2.23 ± 0.17
YKPVVLLQGLSLIVTWFMLLYAQG [SLC19A2]	2.94 ± 0.42	3.02 ± 0.29
SPRLTFQCLEDLVNHYSEVADGLC [SLA]	2.79 ± 0.45	3.19 ± 0.54
LCDVTLMPGDTDDAFPVHRVMMAS [KLHL13]	3.03 ± 0.34	3.2 ± 0.19
PHHHSFYDFIVTKARGKSGPLFNF [FAM50A]	2.29 ± 0.29	2.22 ± 0.16
ACCGGFLEVADFLIKAGADIELGC [ANKRD17]		3.05 ± 1.1
SSVYKQQWFAMLRAEQDSEVGPQE [GMCL1]	4.08 ± 0.37	4.16 ± 0.24
AEGIGSTVFRAILDYYKTGIIRCP [BTBD10]	2.12 ± 0.42	1.99 ± 0.2
KWDGKSTTIKRKREDDKLVVECVM [FABP4]	2.82 ± 0.3	2.83 ± 0.23
HLVEETRIHVLPSLNPDGYEKAYE [CPXM2]	4.46 ± 0.15	4.34 ± 0.046
SDGRTFLSRCEFQRAKCKDPQLEI [SMOC2]	2.95 ± 0.42	2.93 ± 0.33
AFHRKSHSLDLNISEKLTLLPTLY [RNF180]	2.34 ± 0.39	2.1 ± 0.34
KGYLFHTVAGKHQDLKYISPEIMA [CDC25A]	2.32 ± 0.34	2.43 ± 0.23

Sequence	protein stability index (treatment: DMSO)	protein stability index (treatment: MLN4924 1 uM, 8 h)
GIKVQNGGIVTDTPASNHLPGWED [SLC19A2]	4.4 ± 0.23	4.77 ± 0.28
LASITETIQVHRRYWRSLRVMKVE [HDAC6]	2.42 ± 0.3	2.31 ± 0.16
GLSAGYVDAGAEPGRSRMISQEEF [LPCAT4]	4.47 ± 0.32	4.78 ± 0.23
RVRPTFQEITSETEDLCEKPDDEV [RIPK4]	5.57 ± 0.17	5.49 ± 0.56
LGRMGKHEQALFIYVHILKDTRMA [VPS39]	2.89 ± 0.71	2.98 ± 0.78
ARIQTLEPDNWMKEVMLFGHGTRK [RSAD1]	3 ± 0.5	3.33 ± 0.35
VPAQKFSALTFLRVDQDKDKDCSL [SMOC2]	4.19 ± 0.3	4.52 ± 0.31
ATDGARPQALPEPMQESKAEGNNQ [CHGA]	5.67 ± 0.18	5.76 ± 0.11
GSKYYNVEAMYCYLRCIQSEVSFE [SMG5]	3.05 ± 0.94	2.1 ± 0.68
EELEFQYRRVNELLLSILNPTRQD [ZER1]	3.01 ± 0.26	3.04 ± 0.31
RLGWQQQAELQELEERLQLQFEAE [MTUS2]	4.55 ± 0.24	4.65 ± 0.11
IENLAKANPQYTVYSQASTMSIPV [PPP2R5C]	2.8 ± 0.22	2.65 ± 0.25
REDSKEAEKSGEATDGARPQALPE [CHGA]	5.64 ± 0.066	5.64 ± 0.17
IQLRRWQETRGELQCRSPPRLHGA [TBC1D10A]	2.74 ± 0.23	2.85 ± 0.39
DKLDGNELDLSLSDLNEVPVKELA [LRRC59]	5.26 ± 0.093	5.34 ± 0.33
LCVNYFFYGETVADYFATFVQREE [CDS1]	3.4 ± 0.68	2.61 ± 0.99
VLNVAGEAGGKQKAVEEELDAEDR [SLC6A17]	5.72 ± 0.17	5.69 ± 0.16
VENGDFNWIVPGKFLAFSGPHPKS [CDC14A]	2.76 ± 0.41	2.92 ± 0.43
MELGGHWDMNSAPRLVSETAERKQ [MFSD9]	4.98 ± 0.11	4.98 ± 0.2
IMSRVNAYQQGVGYQMLGNVVTIG [PHTF1]	2.21 ± 0.48	2.31 ± 0.34
GHPVGLALEAAVHVQKLSQECLKQ [TRIM14]	3.07 ± 0.2	3.14 ± 0.28
YDGYRLRVEFPRSGRGTGRGGGGG [SRSF1]	3.81 ± 0.26	3.99 ± 0.25
